{"source": "patent US20200199213A1", "about": "(Eli Lilly, published 2020)", "binders": {"B1": {"name": "anti-ANGPTL3/8 complex Ab having a LC of SEQ ID NO:5 and a HC of SEQ ID NO:6 (antibody, human IgG4 S228P, kappa, F234A L235A, V domains shown)", "VH": "QVTLKESGPTLVKPTQTLTLTCTFSGFSLSISGVGVGWIRQPPGKALEWLALIYRNDDKRYSPSLKSRLTITKDTSKNQVVLTLTNMDPVDTATYYCARTYSSGWYGNWFDPWGQGTLVTVSS", "VL": "DIVMTQTPLSLPVTPGEPASISCRSSQSLLDSDDGNTYLDWYLQKPGQSPQLLIYMLSYRASGVPDRFSGSGSGTDFTLKISRVEAEDVGIYYCMQRIEFPLTFGGGTKVEIKR", "notes": "In the ELISA assays tested as IgG from CHO supernatants; also called the Ab"}, "B2": {"name": "Ab with LC variant having a E99Q mutation (SEQ ID NO:25) and a HC of SEQ ID NO:6 (antibody, human IgG4 S228P, kappa, F234A L235A, V domains shown)", "VH": "B1 VH", "VL": "B1 VL with E99Q", "notes": "also called E99Q Variant Ab; E99Q Ab"}}, "key": {"mouse ANGPTL3/8 complex [1]": {"target": "T1, mouse ANGPTL3/8 complex (mouse, UniProt Q9R182 17-455; Q8R1L8 16-198, limits assumed)", "T1 sequence (looked up) 1": "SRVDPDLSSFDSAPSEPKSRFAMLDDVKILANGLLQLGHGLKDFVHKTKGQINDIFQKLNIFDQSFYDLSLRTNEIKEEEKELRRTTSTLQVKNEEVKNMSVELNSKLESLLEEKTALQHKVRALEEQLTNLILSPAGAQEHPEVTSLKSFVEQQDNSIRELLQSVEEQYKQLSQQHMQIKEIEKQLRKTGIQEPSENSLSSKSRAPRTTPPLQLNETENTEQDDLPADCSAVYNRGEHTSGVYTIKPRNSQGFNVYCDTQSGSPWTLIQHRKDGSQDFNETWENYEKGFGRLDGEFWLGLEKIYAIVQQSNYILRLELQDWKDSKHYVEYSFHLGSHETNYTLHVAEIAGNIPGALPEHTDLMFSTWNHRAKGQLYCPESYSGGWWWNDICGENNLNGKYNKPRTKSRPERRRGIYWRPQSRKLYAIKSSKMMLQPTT", "T1 sequence (looked up) 2": "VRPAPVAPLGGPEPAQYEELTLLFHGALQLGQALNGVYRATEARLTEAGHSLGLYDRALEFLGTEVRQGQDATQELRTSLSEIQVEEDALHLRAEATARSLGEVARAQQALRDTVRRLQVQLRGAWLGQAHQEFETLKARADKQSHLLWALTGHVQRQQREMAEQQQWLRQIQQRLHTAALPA", "assay": "cell-based or functional assay"}, "human ANGPTL3/8 complex [2]": {"target": "T2, human ANGPTL3/8 complex (human, UniProt Q9Y5C1 17-460; Q6UXH0 22-198, limits assumed)", "T2 sequence 1": "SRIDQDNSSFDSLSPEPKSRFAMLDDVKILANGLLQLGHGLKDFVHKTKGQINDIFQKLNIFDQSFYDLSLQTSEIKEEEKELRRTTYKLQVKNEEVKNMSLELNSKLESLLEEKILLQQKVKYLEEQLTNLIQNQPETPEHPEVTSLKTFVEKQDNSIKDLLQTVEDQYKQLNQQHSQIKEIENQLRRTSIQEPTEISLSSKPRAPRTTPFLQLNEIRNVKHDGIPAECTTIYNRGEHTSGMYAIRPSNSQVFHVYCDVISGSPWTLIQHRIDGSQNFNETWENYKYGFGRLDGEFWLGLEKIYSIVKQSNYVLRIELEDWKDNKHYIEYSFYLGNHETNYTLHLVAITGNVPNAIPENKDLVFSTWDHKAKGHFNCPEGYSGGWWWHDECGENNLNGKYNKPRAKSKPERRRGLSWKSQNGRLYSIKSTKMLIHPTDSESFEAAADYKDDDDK", "T2 sequence 2": "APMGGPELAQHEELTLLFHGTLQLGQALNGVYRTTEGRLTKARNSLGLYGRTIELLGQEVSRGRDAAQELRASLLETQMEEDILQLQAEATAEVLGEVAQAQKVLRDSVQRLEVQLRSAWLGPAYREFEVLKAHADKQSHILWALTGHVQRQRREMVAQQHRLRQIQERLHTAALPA", "assay": "cell-based or functional assay"}, "[3]": {"target": "T3, cynomolgus ANGPTL3/8 complex (cynomolgus, UniProt A0A2K5UDC5 17-460; A0A2K5WWS3 22-198)", "T3 sequence 1": "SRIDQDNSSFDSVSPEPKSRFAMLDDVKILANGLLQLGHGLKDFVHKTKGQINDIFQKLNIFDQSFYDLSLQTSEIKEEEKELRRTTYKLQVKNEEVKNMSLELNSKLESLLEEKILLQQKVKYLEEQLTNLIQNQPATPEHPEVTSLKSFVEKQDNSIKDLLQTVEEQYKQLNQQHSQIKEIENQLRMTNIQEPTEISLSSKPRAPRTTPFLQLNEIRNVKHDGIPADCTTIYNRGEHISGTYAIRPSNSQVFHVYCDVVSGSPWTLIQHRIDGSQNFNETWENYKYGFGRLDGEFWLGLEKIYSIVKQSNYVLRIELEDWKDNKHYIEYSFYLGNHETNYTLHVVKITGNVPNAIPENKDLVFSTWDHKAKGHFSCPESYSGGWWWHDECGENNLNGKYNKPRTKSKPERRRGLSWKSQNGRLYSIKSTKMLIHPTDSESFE", "T3 sequence 2": "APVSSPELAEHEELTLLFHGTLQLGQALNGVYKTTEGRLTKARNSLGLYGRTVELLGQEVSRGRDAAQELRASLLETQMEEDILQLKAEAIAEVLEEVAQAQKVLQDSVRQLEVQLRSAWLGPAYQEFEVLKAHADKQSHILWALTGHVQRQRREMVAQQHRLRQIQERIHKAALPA", "assay": "cell-based or functional assay"}, "mouse ANGPTL3/8 complex [4]": {"target": "T1, mouse ANGPTL3/8 complex", "assay": "SPR, Biacore T200; Ab captured on Human Fab Binder, complex injected; pH 7.4, 25 C"}, "human ANGPTL3/8 complex [5]": {"target": "T2, human ANGPTL3/8 complex", "assay": "SPR, Biacore T200; Ab captured on Human Fab Binder, complex injected; pH 7.4, 25 C"}, "[6]": {"target": "T3, cynomolgus ANGPTL3/8 complex", "assay": "SPR, Biacore T200; Ab captured on Human Fab Binder, complex injected; pH 7.4, 25 C"}, "mouse ANGPTL3/8 complex [7]": {"target": "T1, mouse ANGPTL3/8 complex", "assay": "SPR, Biacore T200; Ab captured on Human Fab Binder, complex injected; pH 7.4, 25 C", "remark": "listed apart in the source"}, "human ANGPTL3/8 complex [8]": {"target": "T2, human ANGPTL3/8 complex", "assay": "SPR, Biacore T200; Ab captured on Human Fab Binder, complex injected; pH 7.4, 25 C", "remark": "listed apart in the source"}, "[9]": {"target": "T3, cynomolgus ANGPTL3/8 complex", "assay": "SPR, Biacore T200; Ab captured on Human Fab Binder, complex injected; pH 7.4, 25 C", "remark": "listed apart in the source"}}, "note": "Changes are numbered by the printed parent chain. Names and notes keep the numbering of the source. Like-named read-outs stand apart in the source and are kept apart here.", "data": [{"binder": "B1", "values": [{"measurement": "% Max Derepression of LPL", "setting": "mouse ANGPTL3/8 complex [1]", "value": 103, "unit": "%"}, {"measurement": "Ab EC50 (nM), derepression of LPL", "setting": "mouse ANGPTL3/8 complex [1]", "value": 1.38, "unit": "nM"}, {"measurement": "% Max Derepression of LPL", "setting": "human ANGPTL3/8 complex [2]", "value": 102, "unit": "%"}, {"measurement": "Ab EC50 (nM), derepression of LPL", "setting": "human ANGPTL3/8 complex [2]", "value": 0.28, "unit": "nM"}, {"measurement": "% Max Derepression of LPL", "setting": "[3]", "value": 96, "unit": "%"}, {"measurement": "Ab EC50 (nM), derepression of LPL", "setting": "[3]", "value": 1.31, "unit": "nM"}, {"measurement": "Kd", "setting": "mouse ANGPTL3/8 complex [4]", "value": 0.366, "unit": "nM"}, {"measurement": "koff", "setting": "mouse ANGPTL3/8 complex [4]", "value": 0.000172, "unit": "s⁻¹"}, {"measurement": "kon", "setting": "mouse ANGPTL3/8 complex [4]", "value": 475000, "unit": "M⁻¹ s⁻¹"}, {"measurement": "Kd", "setting": "human ANGPTL3/8 complex [5]", "value": 0.135, "unit": "nM"}, {"measurement": "koff", "setting": "human ANGPTL3/8 complex [5]", "value": "6.31e-05", "unit": "s⁻¹"}, {"measurement": "kon", "setting": "human ANGPTL3/8 complex [5]", "value": 477000, "unit": "M⁻¹ s⁻¹"}, {"measurement": "Kd", "setting": "[6]", "value": 0.213, "unit": "nM"}, {"measurement": "koff", "setting": "[6]", "value": "9.91e-05", "unit": "s⁻¹"}, {"measurement": "kon", "setting": "[6]", "value": 491000, "unit": "M⁻¹ s⁻¹"}]}, {"binder": "B2", "values": [{"measurement": "Kd", "setting": "mouse ANGPTL3/8 complex [7]", "value": 0.254, "unit": "nM"}, {"measurement": "koff", "setting": "mouse ANGPTL3/8 complex [7]", "value": 0.000151, "unit": "s⁻¹"}, {"measurement": "kon", "setting": "mouse ANGPTL3/8 complex [7]", "value": 596000, "unit": "M⁻¹ s⁻¹"}, {"measurement": "Kd", "setting": "human ANGPTL3/8 complex [8]", "value": 0.0484, "unit": "nM"}, {"measurement": "koff", "setting": "human ANGPTL3/8 complex [8]", "value": "3.26e-05", "unit": "s⁻¹"}, {"measurement": "kon", "setting": "human ANGPTL3/8 complex [8]", "value": 674000, "unit": "M⁻¹ s⁻¹"}, {"measurement": "Kd", "setting": "[9]", "value": 0.116, "unit": "nM"}, {"measurement": "koff", "setting": "[9]", "value": "7.23e-05", "unit": "s⁻¹"}, {"measurement": "kon", "setting": "[9]", "value": 620000, "unit": "M⁻¹ s⁻¹"}]}]}
